B1: TOR1AIP2 (parent)
chain: DGAGRTWQDSDTVKLLVDLELSYG
B2: ZBTB22 (parent)
chain: HTGLKPYECGVCAKKFMWRDSFMR

Variants of: B1
Assay: protein stability index of a GFP-peptide fusion (GPS, HEK-293T) (PSI 1-6); higher = more stable
Conditions: c terminus: a fixed tail appended
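Also: lentivirally expressed fusions sorted by FACS into six bins by GFP to DsRed ratio, PSI derived from sequencing read proportions per bin multiplied by bin number.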

Variant	protein stability index
D18I	4.08
D18P	3.1
D18C	2.22
D18H	1.08
D18M	1.36
D18A	4
D18S	1.52
D18N	1.8
D18K	1.98
D9R	3.52
D9E	1.5
D9V	2.09
D9H	1.09
D9N	2.92
L21D	2
L21Q	2.35
L21P	3.99
L21C	1.75
L21F	1.6
L21N	2.07
L21T	1.44
L21K	2.02
L21M	2.65
L21A	2.01
L21E	1.62

Variant	protein stability index
L21Y	1.62
L21H	2.84
L21W	1.72
L15R	3.9
L15V	2.53
L15Q	4.28
L15A	3.7
L15N	4.18
L15F	2.18
L15T	3.67
L15S	4.04
L15G	3.75
L15Y	1.84
L15K	4.4
L15H	3.54
L15E	4.54
L15W	2.07
L15P	3.82
L15I	1.75
S10N	1.6
S10D	3.02
S10P	2.36
S10E	3.06
S10T	1.99
S10H	1.04

Variant	protein stability index
S10G	1.01
S10C	2.18
S10Q	1.9
S10R	2.08
S10V	2.92
S10A	1.92
V17N	4.01
V17F	1.78
V17C	1.92
V17D	4.56
V17Q	3.97
V17L	2.34
V17W	1.58
V17I	2.54
V17S	3.21
V17G	3.17
V17R	3.11
V17M	1.85
V17Y	2.39
V17E	4.81
R5T	1.46
R5V	3.3
R5Q	2.05
R5W	2.76
R5Y	2.33

Variant	protein stability index
E20P	3.09
E20N	2.08
E20T	1.48
E20W	2.81
E20Q	2.23
E20D	1.56
E20H	1.26
E20L	2.12
E20R	1.61
E20M	1.68
E20F	2.34
E20S	1.75
E20G	2.13
E20K	1.93
E20Y	1.59
T6A	1.74
T6Y	1.58
T6Q	2.03
T6E	2.62
T6K	3.73
T6C	1.92
T6I	2.17
T6D	2.37
T6W	1.1
T6S	2.96

Variant	protein stability index
D11I	3.92
D11G	1.18
D11K	1.53
D11Q	3.09
D11P	1.66
D11F	2.77
D11R	1.13
D11S	1.52
D11N	2.14
D11E	2.08
D11A	2.27
S22T	1.56
S22N	3.21
S22Y	2.35
S22F	1.79
S22E	2.33
S22R	1.84
S22D	2.51
S22H	1.7
S22M	2.13
S22C	1.85
S22K	3.51
S22P	3.28
S22G	2.49
S22L	1.89

Variant	protein stability index
S22W	1.47
S22I	1.55
S22A	3.17
S22Q	2.61
W7E	4.3
W7R	3.68
W7L	2.03
W7V	2.44
W7P	2.45
W7H	2.83
W7I	2.5
W7G	3.22
W7A	3.35
W7M	2.36
W7N	4.06
W7C	2.79
W7D	4.15
W7F	2.91
T12M	1.58
T12K	2.6
T12Y	1.49
T12H	1.35
T12I	1.54
T12F	1.4
T12D	3.56

Variant	protein stability index
T12Q	1.6
T12W	1.87
T12R	2.59
T12E	3.43
T12S	2.28
T12V	2.03
T12N	2.79
L16M	2.02
L16W	2.88
L16S	3.36
L16P	3.38
L16Y	1.82
L16Q	3.31
L16N	3.94
L16C	1.99
L16V	1.42
L16T	3.66
L16R	2.98
L16K	4.25
L16D	3.52
L16I	2.57
L16G	3.57
L16E	3.69
L19G	4.45
L19T	4.11

Variant	protein stability index
L19K	4.38
L19M	3
L19F	2.43
L19C	2.8
L19E	4.55
L19S	4
L19I	2.03
L19A	3.97
L19Y	3.19
L19N	3.75
L19V	2.27
L19D	4.31
V13N	3.08
V13I	1.06
V13R	2.7
V13F	1.37
V13D	5.09
V13T	2.44
V13K	2.18
V13P	3.82
V13C	2.04
V13L	2.07
V13E	3.95
V13M	2.77
Q8N	2.26

Variant	protein stability index
Q8G	3.19
Q8S	3.33
Q8M	2.09
Q8Y	1.56
Q8P	2.49
Q8K	1.38
Q8E	2.26
Q8T	4.32
Q8R	2.88
Q8D	1.24
K14H	1.42
K14A	1.96
K14P	3.03
K14T	1.61
K14E	1.88
K14S	1.61
K14G	1.91
K14W	1.5
K14R	1.83
K14D	1.91
K14N	1.74
K14Q	1.63
G24E	1.71
G24N	1.26
G24Q	2.53

Variant	protein stability index
G24D	1.8
G24A	2.47
G24S	2.51
G24T	1.73
G24P	2.77
G24K	2.88
G24I	3.44
Y23M	5.21
Y23D	1.91
Y23R	2.15
Y23F	1.03
Y23N	1.45
Y23T	2.56
Y23G	2.6
Y23S	1.56
Y23A	1.1
Y23E	1.85
Y23H	1.77
Y23I	1.36
Y23K	3.9

Variants of: B2
Assay: as above
Conditions: c terminus: a fixed tail appended

Variant	protein stability index
Y7L	2.73
Y7G	2.84
Y7S	1.97
Y7P	1.34
M17C	2.27
M17W	2.45
M17F	3.05
H1I	2.85
H1F	1.76
C12P	1.73
K14Y	3.07
K14F	1.99
D20F	2.08
D20S	2.08
D20L	2.27
G3T	2.23
G3V	3.07
G3L	1.69
G3Q	1.52
F16M	2.46
K15W	1.79
K15D	2.52
K15H	3.5

Variant	protein stability index
K15Q	2.05
K15V	1.77
K15M	2.88
F22P	2.07
F22S	1.66
F22E	3.96
F22Q	3.48
F22A	1.79
F22W	1.53
R19H	2.12
R19Y	2.06
V11H	2.37
V11I	3.5
V11T	1.83
V11D	3.26
A13G	1.54
A13E	1.56
A13H	2.56
A13M	3.7
M23A	3.12
M23S	2.46
M23Q	3.15
M23I	1.88

Variant	protein stability index
G10F	2.12
G10Q	2.19
G10R	2.01
G10C	2.58
G10E	2.44
P6I	1.45
P6D	1.82
P6Q	2.26
P6L	2.99
P6F	2.28
P6N	1.65
P6S	2.62
P6Y	2.11
L4H	2.07
L4V	3.58
L4Y	3.37
L4M	1.93
C9H	1.48
C9R	1.8
C9L	2.75
C9D	1.85
C9F	3.19
C9A	1.46

Variant	protein stability index
S21F	1.98
S21Q	1.83
S21V	2.1
S21G	2.9
S21I	2.32
S21N	1.49
R24F	2.3
R24M	3.19
R24G	1.87
R24V	2.82
E8I	2.78
W18K	1.75
W18T	1.68
K5N	1.56
K5M	2.73
K5P	1.62
K5L	1.92
T2R	2.38
T2E	2.67
T2D	3.09

Source: the supplement of paper PMC10567573
